Laboratory results taken from US11441147B2 (priority 2013, dated 2022).
Where two headings read alike, the source gives them in different places.

How the values were obtained:
[1] = test system: Fusarium graminearum (Fg) macroconidia; type: cell-based; details: for Morphology of Fg macroconidia (microscopic analysis): 1.5 μg dsRNA per 100 macroconidia in 100 μl SNA medium
[2] = test system: CYP51A; type: cell-based, Fusarium graminearum; details: 72 hpt; normalized to beta-tubulin
[3] = test system: CYP51B; type: cell-based, Fusarium graminearum; details: 72 hpt; normalized to beta-tubulin
[4] = test system: CYP51C; type: cell-based, Fusarium graminearum; details: 72 hpt; normalized to beta-tubulin
[5] = test system: Fusarium graminearum (Fg) macroconidia; type: cell-based; details: 0 hpt and 72 hpt; dose dependent, 75 μg to 1 μg dsRNA
[6] = test system: GFP-expressing Fg strain; type: in vivo, Fusarium graminearum on Arabidopsis thaliana Col-0; details: 3 dpi; CYP3RNA-expressing leaves
[7] = test system: Fg CYP51A; type: in vivo, Fusarium graminearum; details: 3 dpi; average of lines L1, L8, L10, L11 vs ev control line
[8] = test system: Fg CYP51B; type: in vivo, Fusarium graminearum; details: 3 dpi; average of lines L1, L8, L10, L11 vs ev control line
[9] = test system: Fg CYP51C; type: in vivo, Fusarium graminearum; details: 3 dpi; average of lines L1, L8, L10, L11 vs ev control line
[10] = test system: siRNAs corresponding to the targeted CYP51 sequences; experiment: Northern analysis of siRNAs in Arabidopsis leaves with CYP3RNA as probe; set-up: species or system Arabidopsis thaliana; details: Fg-infested and uninfested leaves from CYP3RNA-expressing plants
Experimental: For detecting siRNA, total RNA was extracted from the Arabidopsis lines using TRIzol reagent (Invitrogen) following the manufacturer's protocol. A total of 15 μg total RNA was separated in a 16% polyacrylamide-7 M urea gel, and transferred onto Hybond Nylon membrane (Amersham, UK) using a semidry blotter (BioRad) at constant current (250 mA) for 3 h. The RNA was UV-cross-linked to the membrane at 1200×100 μjoules (UV Stratalinker) energy. The membrane was pre-hybridized for 45 min at 42° C. in 20 ml PerfectHyb-Puffer (Sigma). The complete 791 bp CYP3RNA PCR amplicon was used as a template for random labeling (Random Primer DNA Labeling with Kit, NEB), added to the hybridization buffer, and hybridized overnight at 42° C. The membrane was washed twice at room temperature with 5×SSC+0.01% SDS. The membrane was exposed on phosphorimaging screens (Bio-Rad) and signals were detected using a molecular imager and the Quantity One software (BioRad). A parallel loading of low range RNA marker (Fermentas) was used as size marker.
It was further assessed whether this reduction in Fg CYP51 transcripts was associated with the production of corresponding siRNAs. In Northern analyses using CYP3RNA as the probe, siRNAs corresponding to the targeted CYP51 sequences in both Fg-infested and uninfested leaves from CYP3RNA-expressing plants were detected (FIG. 8). […]

[11] = test system: Fusarium graminearum (Fg); type: in vivo, Fusarium graminearum on barley cultivar Golden Promise; details: 6 days after inoculation
[12] = test system: Fusarium graminearum (Fg); type: in vivo, Fusarium graminearum on barley; details: upper part sprayed, lower part inoculated after 2 days; 6 days after inoculation
[13] = test system: Fusarium graminearum (Fg); details: 3 dpi

Molecule | Phenotype of Fg macroconidia ([1]; tebuconazole 5 mg/l, 72 h post treatment) | Morphology of Fg macroconidia (microscopic analysis) ([1]; 48 h post treatment) | Morphology of Fg macroconidia (microscopic analysis) ([1]; 72 h post treatment) | CYP51A transcript level vs mock control [2] | CYP51B transcript level vs mock control [3] | CYP51C transcript level vs mock control [4] | Fungal growth (optical densities of Fg cultures at 600 nm) [5] | Fungal growth on intact leaves (GFP fluorescence) [6] | Reduction of relative transcript level of Fg CYP51A [7] | Reduction of relative transcript level of Fg CYP51B [8] | Reduction of relative transcript level of Fg CYP51C [9] | siRNAs corresponding to the targeted CYP51 sequences [10] | Relative amount of fungal DNA (qPCR, normalized to plant ubiquitin DNA) ([11]; vs infected control leaves) | Fungal growth on sprayed leaves (infection symptoms) ([11]; dsRNA 20 ng/μl sprayed 48 h before inoculation, vs buffer or GFP-dsRNA) | Fungal growth at sprayed upper and unsprayed lower leaf area (relative amount of fungal DNA) [12] | Reduction of fungal mycelium formation on leaves (trypan blue microscopy) ([13]; CYP3RNA-expressing leaves vs Col-0 ev control) | Disease symptoms on detached leaves ([13]; T2 lines L1, L8, L10, L11, 5×10^4 Fg macroconidia per ml) | Percentage of infested leaf area ([13]; four transgenic lines, ev controls 77%)
CC(C)(C)C(O)(CCc1ccc(Cl)cc1)Cn1cncn1 (stereo not drawn) [tebuconazole, reference compound] | phenotype comparable to that elicited by CYP3RNA treatment | – | – | – | – | – | – | – | – | – | – | – | – | – | – | – | – | –
CYP3RNA: 791 bp dsRNA complementary to all three Fg CYP51 genes, from stacked clone CYP51B-CYP51A-CYP51C; SEQ ID NO:7 (nucleic acid, combines partial sequences of Fusarium graminearum CYP51B-CYP51A-CYP51C) DNA: CAGCAAGTTTGACGAGTCCCTGGCCGCTCTCTACCACGACCTCGATATGGGCTTCACCCCCATCAACTTCATGCTTCACTGGGCCCCTCTCCCCTGGAACCGTAAGCGCGACCACGCCCAGCGCACTGTTGCCAAGATCTACATGGACACTATCAAGGAGCGCCGCGCCAAGGGCAACAACGAATCCGAGCATGACATGATGAAGCACCTTATGAACTCTCCATGGCGGCCGCGGGAATTCGATATCGGTCCATTGACAATCCCCGTCTTTGGTAGCGATGTCGTATACGATTGTCCCAACTCGAAGCTCATGGAACAAAAGAAGTTTGTCAAGTTTGGCCTTACGCAAAAAGCACTCGAGTCACACGTCCAGTTAATCGAGCGAGAGGTTCTTGACTACGTCGAAACTGATCCATCCTTTTCTGGCAGAACTAGCACCATCGATGTCCCCAAGGCAATGGCTGAGATAACAATCTTTACTGCCTCACGTTCTTTGCAGGGTGAGGAAGTTCGGAGAAAACTCACTGCCGAGTTTGCTGCCACTAGTATTGGAAGCACCGTACAATATGGCATCGACCCGTACGCTTTTTTCTTCGACTGCAGAGATAAATACGGCGACTGCTTTACCTTTATTCTCCTTGGCAAATCAACGACTGTCTTTCTTGGTCCCAAGGGCAATGACTTTATCCTCAACGGCAAACACGCCGATCTCAACGCCGAGGACGTTTATGGGAAACTTACCACGCCCGTGTTTGGTGAGGAGGTTGTTTATGACTGCTCCAATG | – | swelling of hyphal tips | morphological changes had become more pronounced | significantly reduced | significantly reduced | significantly reduced | strongly inhibited | restricted to the inoculation site | 92% | 89% | 77% | detected | significantly lower | significant inhibition of fungal growth | observed not only at the CYP3RNA-treated upper leaf area but also at the lower leaf area | ~100% | no disease symptoms | 0.9%
